Test results as given in the supplement of paper PMC10724198.
± gives the standard deviation of the averaged measurements.

Test system: Saccharomyces cerevisiae
Assay: protein stability index of tFT-peptide fusion (C-terminal peptide) (PSI (0-1 scale)); higher = more stable (slower turnover)
Conditions: genetic background: wild type; temperature: 30 C
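Also: PSI is a weighted mean of sequencing reads over stability bins, variants kept only with over 10 reads, mCherry proximal and sfGFP distal, peptide attached via GGGS linker.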

QQNKKKKTRKSG
protein stability index: 0.704 ± 0.046

QQRVKTYHELHL
protein stability index: 0.712 ± 0.013

QRGKKKKDKSLV
protein stability index: 0.6424 ± 0.0025

QRPFRRRRVLCP
protein stability index: 0.561 ± 0.054

QSAGGTRAKFGG
protein stability index: 0.658 ± 0.053

QSRFFCDKKVWG
protein stability index: 0.6934 ± 0.0049

QSTGDFAVRQSF
protein stability index: 0.753 ± 0.093

QSWEDILKINEE
protein stability index: 0.757 ± 0.011

QTQTAKEWAYHP
protein stability index: 0.686 ± 0.015

QTRYAPCQRAPT
protein stability index: 0.645 ± 0.08

QTTKRKKKAKKK
protein stability index: 0.675 ± 0.089

QVASVTSLLPYS
protein stability index: 0.75 ± 0.032

QVGTHVTLCEDP
protein stability index: 0.679 ± 0.0098

QWGGWGVGRIEG
protein stability index: 0.629 ± 0.069

QYASPSISTLPV
protein stability index: 0.726 ± 0.065

RAAPQEDFTFYR
protein stability index: 0.771 ± 0.14

RAASLVSCSLIL
protein stability index: 0.672 ± 0.024

RACALLIVGAGG
protein stability index: 0.527 ± 0.0085

RAFDWFFIFGWC
protein stability index: 0.636 ± 0.04

RAFGQGMGLAFS
protein stability index: 0.737 ± 0.0082

RAGKEGRVSSSK
protein stability index: 0.6619 ± 0.0057

RAKRPAGTSTRG
protein stability index: 0.604 ± 0.016

RALRAGVGVRAC
protein stability index: 0.662 ± 0.08

RAPPAARIASGL
protein stability index: 0.677 ± 0.026

RARPGKATSAFH
protein stability index: 0.73 ± 0.019

RARPPPQLHLSP
protein stability index: 0.745 ± 0.012

RAYRSTCRCSER
protein stability index: 0.669 ± 0.081

RCFLFSPCWAFS
protein stability index: 0.5889 ± 0.002

RCGLVGILCSSI
protein stability index: 0.5632 ± 0.004

RCGRSVSCLATG
protein stability index: 0.696 ± 0.042

RCGVGGSVSFWW
protein stability index: 0.689 ± 0.05

RCHGRVNLAEGE
protein stability index: 0.7564 ± 0.00055

RCLRYFVWRLGW
protein stability index: 0.709 ± 0.12

RCLSRLSALGTD
protein stability index: 0.624 ± 0.076

RCNCTTTTLRSK
protein stability index: 0.6046 ± 0.0019

RCPDSARRWRVP
protein stability index: 0.7111 ± 0.0045

RCPVFRCITGGL
protein stability index: 0.61 ± 0.031

RCTLFGMDQSSA
protein stability index: 0.642 ± 0.027

RCTRQVHPLTFR
protein stability index: 0.66 ± 0.038

RCVRLSISILRP
protein stability index: 0.586 ± 0.038

RCWVTVIRSVRS
protein stability index: 0.601 ± 0.067

RDELRTSAGKGS
protein stability index: 0.659 ± 0.055

RDERDWDGSSWA
protein stability index: 0.708 ± 0.03

RDGRNSKPTYQP
protein stability index: 0.667 ± 0.025

RDLVEQTLHIEY
protein stability index: 0.667 ± 0.013

REEGIEKKEKIR
protein stability index: 0.678 ± 0.03

REGCYVRGGILL
protein stability index: 0.68 ± 0.072

REGRTRGTAAER
protein stability index: 0.679 ± 0.027

REKARNEKRRKT
protein stability index: 0.651 ± 0.0075

REKEKGYLNKKK
protein stability index: 0.743 ± 0.041

RELLYLPPPSDP
protein stability index: 0.821 ± 0.051

REPFCVVGGREG
protein stability index: 0.681 ± 0.04

RERAQEMGIRNE
protein stability index: 0.675 ± 0.031

RERRFFPPSGFS
protein stability index: 0.71 ± 0.018

REWLGCYVFGVR
protein stability index: 0.677 ± 0.022

RFASVLSLPLSV
protein stability index: 0.642 ± 0.13

RFCRPLSHTALA
protein stability index: 0.632 ± 0.028

RFCRSGCWFRWG
protein stability index: 0.607 ± 0.015

RFFAVSLGGLEF
protein stability index: 0.687 ± 0.031

RFGGVWRCRGFV
protein stability index: 0.696 ± 0.031

RFPLPGLISFSS
protein stability index: 0.742 ± 0.056

RFPSLCVPFLFP
protein stability index: 0.678 ± 0.013

RFPSRLLVPPPP
protein stability index: 0.698 ± 0.077

RFRYFSPLSTTS
protein stability index: 0.671 ± 0.027

RFSKGKPVSAGG
protein stability index: 0.632 ± 0.033

RFTCYLCLKGLL
protein stability index: 0.681 ± 0.052

RFVRGEFLWGVC
protein stability index: 0.663 ± 0.044

RFVTLLSDFFLL
protein stability index: 0.681 ± 0.063

RFWIVVRRQTRT
protein stability index: 0.6447 ± 0.00089

RGACGWVDWWGL
protein stability index: 0.856 ± 0.13

RGAGYQLFGPPR
protein stability index: 0.698 ± 0.037

RGARRGAPVCGW
protein stability index: 0.71 ± 0.0075

RGASKYDGDSRR
protein stability index: 0.668 ± 0.016

RGATAKGQRRVR
protein stability index: 0.686 ± 0.046

RGCGAIYRGSCG
protein stability index: 0.707 ± 0.021

RGCGGGTGDGRG
protein stability index: 0.697 ± 0.045

RGELSGVRVSVR
protein stability index: 0.645 ± 0.043

RGFGFAYVSEHI
protein stability index: 0.708 ± 0.075

RGFGGVLGRVFL
protein stability index: 0.725 ± 0.017

RGFGSLSKPMCH
protein stability index: 0.711 ± 0.012

RGFLHVRCRDTC
protein stability index: 0.7049 ± 0.0011

RGGAGSWDWEAG
protein stability index: 0.707 ± 0.028

RGGGGAKGEGVR
protein stability index: 0.707 ± 0.048

RGGGGGSAVEGG
protein stability index: 0.635 ± 0.095

RGGGGGVWGHVV
protein stability index: 0.58 ± 0.02

RGGGVVRGCSGG
protein stability index: 0.679 ± 0.014

RGGRGLECAFYI
protein stability index: 0.7903 ± 0.001

RGGVGGSVSFWW
protein stability index: 0.707 ± 0.072

RGGVGWGVFRVS
protein stability index: 0.679 ± 0.064

RGGWGGGGAAGS
protein stability index: 0.649 ± 0.053

RGIEQRHFPKGA
protein stability index: 0.7 ± 0.011

RGKREEQVRGGD
protein stability index: 0.622 ± 0.035

RGKVVRLLLERM
protein stability index: 0.72 ± 0.067

RGLVIWRVGGMK
protein stability index: 0.66337 ± 0.00065

RGMPMARVRSAG
protein stability index: 0.693 ± 0.054

RGNAMSFVCVGE
protein stability index: 0.658 ± 0.096

RGNPLLWHSSPR
protein stability index: 0.657 ± 0.051

RGPLNPNWPPTD
protein stability index: 0.7 ± 0.037

RGPPIPTLRYQH
protein stability index: 0.746 ± 0.079

RGPTGEDLCSAM
protein stability index: 0.696 ± 0.032

RGPVSQNPEINF
protein stability index: 0.732 ± 0.02

RGRGGDERSVRG
protein stability index: 0.644 ± 0.013

RGRGKAGGETTV
protein stability index: 0.686 ± 0.035

RGRVLDTRDWGP
protein stability index: 0.666 ± 0.059

RGSCPFQSWRCS
protein stability index: 0.59 ± 0.038

RGSGEVVLFGVG
protein stability index: 0.671 ± 0.057

RGSRVDLKLSKK
protein stability index: 0.678 ± 0.019

RGSWRGLADSGV
protein stability index: 0.676 ± 0.08

RGTYACGMGGVG
protein stability index: 0.654 ± 0.074

RGVAGSTLGLRI
protein stability index: 0.566 ± 0.069

RGVGGREGAAPV
protein stability index: 0.691 ± 0.0093

RGVIKNKIKRLK
protein stability index: 0.768 ± 0.078

RGVRGLWGGKRG
protein stability index: 0.626 ± 0.015

RGWDEHRVGSEY
protein stability index: 0.671 ± 0.095

RGWKGGLSLGEI
protein stability index: 0.586 ± 0.021

RGWLSAWDENGK
protein stability index: 0.704 ± 0.019

RHGTRHKLLGTL
protein stability index: 0.659 ± 0.016

RHIDSRDPTDSP
protein stability index: 0.651 ± 0.081

RHLFGTGIMPER
protein stability index: 0.683 ± 0.12

RHPLPHNLSPYP
protein stability index: 0.78 ± 0.0065

RHPSAPRPVPLM
protein stability index: 0.695 ± 0.11

RHTYSPRAPVPD
protein stability index: 0.707 ± 0.025

RIEKYKKKKETK
protein stability index: 0.712 ± 0.084

RIIHIHKLFLRR
protein stability index: 0.677 ± 0.071

RIKHKNRNKKKN
protein stability index: 0.791 ± 0.033

RIKQKEEKRNRY
protein stability index: 0.779 ± 0.01

RILSFVSCYSLL
protein stability index: 0.506 ± 0.0035

RILVFCPSSFGL
protein stability index: 0.64 ± 0.018

RINGPLHRLSVA
protein stability index: 0.657 ± 0.015

RIQYKKKNRKGI
protein stability index: 0.628 ± 0.037

RITMNMHSLIIP
protein stability index: 0.711 ± 0.032

RITTVPNSNPGN
protein stability index: 0.689 ± 0.08

RITVPIGYHSVS
protein stability index: 0.6891 ± 0.0009

RKAEWIKQYDMH
protein stability index: 0.479 ± 0.072

RKEGRGEEPEKG
protein stability index: 0.65 ± 0.049

RKGNHAHEPSCI
protein stability index: 0.686 ± 0.0034

RKIERKHIKEFS
protein stability index: 0.664 ± 0.0089

RKIKKRITREKM
protein stability index: 0.617 ± 0.082

RKKKKKEKKKVE
protein stability index: 0.741 ± 0.037

RKKKTRGKEKRR
protein stability index: 0.683 ± 0.097

RKKNVYGKKIKI
protein stability index: 0.656 ± 0.083

RKKRGKNEERQD
protein stability index: 0.707 ± 0.056

RKLKQGIVSKKK
protein stability index: 0.66 ± 0.052

RKLNRKEKLQLT
protein stability index: 0.646 ± 0.051

RKNKLKQNKKYR
protein stability index: 0.718 ± 0.012

RKNYRISYKLLD
protein stability index: 0.715 ± 0.02
